The values below come from patent publication US20060270591A1, “Androgen receptor coregulators” (priority 2002, published 2006).

Experiment [1] concerns the target T1, ER (Homo sapiens, UniProt P03372).
T1 sequence (P03372 1-595): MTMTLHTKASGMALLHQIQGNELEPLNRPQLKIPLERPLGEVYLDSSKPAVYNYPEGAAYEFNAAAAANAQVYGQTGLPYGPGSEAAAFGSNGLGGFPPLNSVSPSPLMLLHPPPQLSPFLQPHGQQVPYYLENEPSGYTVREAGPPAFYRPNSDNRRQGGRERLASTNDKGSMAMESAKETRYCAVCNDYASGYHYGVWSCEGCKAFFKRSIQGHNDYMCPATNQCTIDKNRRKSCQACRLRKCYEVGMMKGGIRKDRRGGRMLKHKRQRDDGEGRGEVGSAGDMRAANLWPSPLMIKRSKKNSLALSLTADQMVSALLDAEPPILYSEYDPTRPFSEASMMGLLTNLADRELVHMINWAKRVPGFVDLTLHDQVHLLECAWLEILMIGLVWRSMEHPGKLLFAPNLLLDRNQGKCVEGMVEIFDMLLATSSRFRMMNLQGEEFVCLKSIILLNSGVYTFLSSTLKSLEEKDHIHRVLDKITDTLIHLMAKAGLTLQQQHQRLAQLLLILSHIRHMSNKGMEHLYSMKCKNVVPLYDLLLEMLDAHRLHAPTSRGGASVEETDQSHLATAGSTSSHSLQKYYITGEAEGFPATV
Description: ER transactivation with ARA70 in DU145 cells (Example 3). It counts as cell-based. Also noted: expressed in transfected cells; host or cells: DU145. On the procedure:
411. Human prostate cancer DU145 and PC-3 cells were maintained in […] (DMEM) containing penicillin (25 U/ml), streptomycin (25 μg/ml), and 5% fetal calf serum (FCS). Human LNCaP cells were maintained in RPMI containing penicillin (25 U/ml), streptomycin (25 μg/ml), and 10% FCS. Transfections were performed using the calcium phosphate precipitation method, as previously described (Dynlacht et al. (1991) Cell 66, 563-576). Briefly, 4×10^5 cells were plated on 60-mm dishes 24 hours before transfection, and the medium was changed to DMEM with 5% charcoal-dextran stripped FCS (CS-FBS) one hour before transfection. Transfection medium contained a constant amount of reporter plasmid and indicated amounts of pSG5-receptor, ARA70, or pCMX-GAL fusion construct using pSG5 as a carrier to provide equal amounts of transfected DNA. Twenty-four hours after transfection, the medium was changed again, and the cells were treated with DHT or other treatments. After another 24 hours, the cells were harvested for chloramphenicol transferase (CAT) or luciferase assays. At least three independent experiments were carried out in each case. Superfect (Qiagen) was used for transfection in LNCaP cells. The transfection conditions followed the manufacturer's protocol. […]

Experiment [2] has as its target T2, PPAR-γ (Homo sapiens, UniProt P37231).
T2 sequence (P37231 1-505): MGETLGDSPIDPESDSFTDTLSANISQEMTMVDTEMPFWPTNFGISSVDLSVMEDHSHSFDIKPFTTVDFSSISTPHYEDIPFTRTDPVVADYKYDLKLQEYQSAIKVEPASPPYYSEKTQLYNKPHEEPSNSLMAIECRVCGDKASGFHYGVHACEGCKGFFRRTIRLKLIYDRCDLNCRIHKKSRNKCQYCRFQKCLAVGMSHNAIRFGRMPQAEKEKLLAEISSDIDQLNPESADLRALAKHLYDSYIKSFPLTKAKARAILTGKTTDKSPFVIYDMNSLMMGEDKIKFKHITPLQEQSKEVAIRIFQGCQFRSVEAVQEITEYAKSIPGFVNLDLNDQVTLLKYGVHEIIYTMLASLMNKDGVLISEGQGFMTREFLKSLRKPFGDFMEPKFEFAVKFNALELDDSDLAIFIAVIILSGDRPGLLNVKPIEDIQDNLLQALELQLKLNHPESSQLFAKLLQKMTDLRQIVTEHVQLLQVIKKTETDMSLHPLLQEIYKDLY
Description: PPAR-γ transactivation reporter assay (PPRE-Luc) with SV. It counts as cell-based. The method, then: 42. […] (A) The interaction of SV with AR, GR, PPAR-γ and ER-α is tested in mammalian two-hybrid assay. One μg plasmids expressing Gal4(DBD)-AR, GR, PPAR-γ or ER-α was co-transfected with 4 μg plasmids expressing VP16 or VP16-SVn to COS-1 cells. […] The assay method was the same as described in FIG. 29. Relative activities of ligand treatment to EtOH treatment are shown. (B) The coactivation function of SV in different receptors was assayed using reporter gene study. MMTV-Luc, PPRE-Luc, ERE-Luc are the reporter genes for AR, GR, PPAR-γ, and ER-α respectively. Lanes 1, 5, 9 and 13 are regarded as 1 fold in each panel.
475. In AR transactivation activity assays, transfections were performed using SuperFect (Qiagen, Chatsworth, Calif.) following protocols described in manual provided by Qiagen. Briefly, cells were plated on 35 mm dishes and after 24 h were transfected using the SuperFect kit. The total DNA amount was adjusted to 2 μg with pSG5 or pEGFP vectors. The medium was changed to DMEM with 10% CD-FBS 2 h after transfection. After 24 h, the DMEM with 10% CD-FBS was changed again, and the cells were treated with various steroids. Cells were harvested after 24 h for dual-luciferase assay as described in protocol provided by Promega. At least three independent experiments were carried out in each case.

Consider “ARA70: ligand-enhanced AR coregulator, full length ARA70”, for which the “enhancement of ER transactivation” value in experiment [1] is given as 2-3 fold.

Turning to “SV: supervillin, 205 kDa actin binding protein; bovine SV (a.a. 1-1792) used in reporter assays”, the “effect on the transactivation of PPAR-γ” value in experiment [2] is recorded as “little effect”.
